Experimental data published in publication PMC12219675 (Nature Communications, 2025).

Target: the molecule itself
Assay: thioflavin T fluorescence

B1: G175S PMEL CAF domain (residues 148-223) (domain or fragment)
chain: SFVYVWKTWGQYWQVLGGPVSGLSIGTSRAMLGTHTMEVTVYHRRGSRSYVPLAHSSSAFTITDQVPFSVSVSQLR
polymerisation (ThT fluorescence) relative to the wild type: ~4 fold
